The assay concerns the target T1, CD20蛋白 (UniProt P11836, 297 amino acids) (human, UniProt P11836 1-297).
T1 construct: whole, on cells; Endogenous CD20 in formalin-fixed paraffin tissue sections (B-cell lymphoma, tonsil, appendix) detected by IHC. 'Human' is stated for CD20 in the abstract; The species of the tissues is not explicitly stated
T1 sequence (looked up): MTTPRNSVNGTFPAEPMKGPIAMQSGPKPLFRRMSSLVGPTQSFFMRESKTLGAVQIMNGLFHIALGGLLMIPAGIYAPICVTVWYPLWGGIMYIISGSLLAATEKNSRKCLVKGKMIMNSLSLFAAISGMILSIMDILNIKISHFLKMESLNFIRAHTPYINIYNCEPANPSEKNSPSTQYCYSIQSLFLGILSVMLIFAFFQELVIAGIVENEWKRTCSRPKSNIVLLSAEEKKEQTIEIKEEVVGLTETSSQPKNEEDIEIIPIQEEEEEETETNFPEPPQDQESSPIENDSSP
As to the kind of experiment: IHC, appendix tissue (Fig. 5).

The values below come from CN111363043A (FUZHOU MAIXIN BIOTECHNOLOGY DEV CO LTD, dated 2020).

B1: 抗CD20蛋白单克隆抗体 (secreted by mouse hybridoma cell line AbM58020-32A8-PU, CGMCC NO.17491) (antibody, V domains shown)
VH: EVKLQESGPSLVKPGASVKISCKASGNTFTDYYMNWVRQSHGQSLEWIGRFIPSTAKTNYNHKFKDKATLTLDTSLSTAYMQLNSLTSEDSAVYYCRSDFAFWGQGTLVTVSA
VL: DILMTQSPLSLSITIGQPASISCKSSQSLLYSNGKTYLNWLLQRPGQSPKRLIYIVSKLDSGVPDRFTGSGSGTDFTLKISRVEAEDLGVYYCGQGTHYPPTFGGGTKLEIK
notes: also called AbM58020-32A8-PU的CD20; AbM58020-32A8-PU杂交瘤分泌抗体
On to B1, for which the binding result is on record as “binds”.
